Laboratory results published in US12036234B2, “Heparin conjugated to collagen-binding peptides for targeting to biological and synthetic tissues” (Northwestern University, priority 2017, dated 2024).
Ends that are not written are not given here.

Target: collagen IV (Mus musculus, UniProt P02463+P08122)
Assay: Cy5 conjugate binding to surface coated collagen IV
Conditions: 30 mg/ml, improved batch, 24 hour incubation
Description: Heparin(Cy5)-CBP conjugates were synthesized using N-(3-dimethylaminopropyl)-N′-ethylcarbodiimide/N-hydroxyl succinimide (EDC/NHS) chemistry (1,2). Briefly, 1 mM of heparin sodium salt or fluorescently pre-conjugated Heparin(Cyanine5) (Hep-Cy5) mixed with 120 mM EDC and 60 mM NHS in 2-(N-morpholino) ethanesulfonic acid (MES) buffer at pH 6.5. This was rocked for 4 hours at 20° C. 1 mM of […] binding peptide (CQDSETRTFY (SEQ ID NO:1), CBP) or a scrambled sequence (CDEFQRSTTY (SEQ ID NO:2), CBPi) was added, and allowed to rock overnight at 4° C. This mixture was dialyzed to exclude molecules […] 3.5 kDa and lyophilized to dry. Four molecular assays were used to assess the functional synthesis of these conjugates. An Ellman's assay is capable of colormetrically labeling the thiol containing cysteine amino acid, and was used to assess the cysteine molar quantity of the whole conjugate (3). A dimethylmethylene blue assay was used to stain the glycosaminoglycan present in heparin conjugates to determine the heparin molar quantity (4). A colormetric kit was used to assess clotting via factor Xa (5). Effective CBP related binding of the conjugate was measured via the Cy5 fluorophore, using a 24 hour incubation with surface coated collagen IV (6). […]

Chain of collagen IV (P02463 173-1669): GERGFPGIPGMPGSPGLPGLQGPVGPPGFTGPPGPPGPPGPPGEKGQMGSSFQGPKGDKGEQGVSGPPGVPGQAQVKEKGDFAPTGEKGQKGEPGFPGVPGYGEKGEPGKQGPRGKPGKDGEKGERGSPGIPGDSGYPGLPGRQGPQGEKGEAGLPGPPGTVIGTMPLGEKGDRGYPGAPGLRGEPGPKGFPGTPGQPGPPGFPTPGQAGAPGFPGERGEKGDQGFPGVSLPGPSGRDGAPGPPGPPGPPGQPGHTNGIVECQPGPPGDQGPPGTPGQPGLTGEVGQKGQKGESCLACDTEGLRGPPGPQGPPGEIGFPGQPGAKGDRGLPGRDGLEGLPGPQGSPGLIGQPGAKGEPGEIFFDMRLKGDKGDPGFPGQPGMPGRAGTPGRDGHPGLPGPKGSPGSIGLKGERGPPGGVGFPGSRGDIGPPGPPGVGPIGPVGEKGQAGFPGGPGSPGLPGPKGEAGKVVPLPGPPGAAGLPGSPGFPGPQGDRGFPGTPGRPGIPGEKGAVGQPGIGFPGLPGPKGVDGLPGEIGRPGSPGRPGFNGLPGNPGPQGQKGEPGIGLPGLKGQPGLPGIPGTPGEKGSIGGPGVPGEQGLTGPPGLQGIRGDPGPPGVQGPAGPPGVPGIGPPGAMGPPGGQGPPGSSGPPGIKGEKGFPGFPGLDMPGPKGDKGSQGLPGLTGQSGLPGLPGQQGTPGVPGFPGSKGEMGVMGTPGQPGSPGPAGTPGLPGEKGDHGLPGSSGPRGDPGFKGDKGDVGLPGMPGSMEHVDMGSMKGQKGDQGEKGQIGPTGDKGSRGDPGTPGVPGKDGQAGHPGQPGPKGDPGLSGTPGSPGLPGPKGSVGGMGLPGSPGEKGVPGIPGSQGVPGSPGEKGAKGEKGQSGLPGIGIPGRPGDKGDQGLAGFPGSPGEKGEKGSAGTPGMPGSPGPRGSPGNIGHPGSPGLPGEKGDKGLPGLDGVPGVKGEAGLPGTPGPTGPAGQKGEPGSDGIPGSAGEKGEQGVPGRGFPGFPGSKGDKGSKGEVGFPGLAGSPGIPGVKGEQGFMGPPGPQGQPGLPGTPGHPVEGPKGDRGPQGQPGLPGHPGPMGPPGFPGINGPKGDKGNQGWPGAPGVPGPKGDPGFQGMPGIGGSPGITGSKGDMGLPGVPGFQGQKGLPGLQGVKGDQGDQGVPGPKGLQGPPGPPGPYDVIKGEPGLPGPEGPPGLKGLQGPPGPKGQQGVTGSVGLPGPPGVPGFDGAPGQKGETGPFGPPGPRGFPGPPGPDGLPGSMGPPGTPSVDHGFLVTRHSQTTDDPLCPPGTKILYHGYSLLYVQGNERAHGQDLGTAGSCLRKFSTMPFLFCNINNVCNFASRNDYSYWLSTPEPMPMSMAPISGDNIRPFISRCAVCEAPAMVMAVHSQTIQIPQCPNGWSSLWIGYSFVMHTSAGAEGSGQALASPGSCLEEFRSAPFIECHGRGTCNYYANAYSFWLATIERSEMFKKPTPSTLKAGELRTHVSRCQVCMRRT
Chain of collagen IV (P08122 184-1707): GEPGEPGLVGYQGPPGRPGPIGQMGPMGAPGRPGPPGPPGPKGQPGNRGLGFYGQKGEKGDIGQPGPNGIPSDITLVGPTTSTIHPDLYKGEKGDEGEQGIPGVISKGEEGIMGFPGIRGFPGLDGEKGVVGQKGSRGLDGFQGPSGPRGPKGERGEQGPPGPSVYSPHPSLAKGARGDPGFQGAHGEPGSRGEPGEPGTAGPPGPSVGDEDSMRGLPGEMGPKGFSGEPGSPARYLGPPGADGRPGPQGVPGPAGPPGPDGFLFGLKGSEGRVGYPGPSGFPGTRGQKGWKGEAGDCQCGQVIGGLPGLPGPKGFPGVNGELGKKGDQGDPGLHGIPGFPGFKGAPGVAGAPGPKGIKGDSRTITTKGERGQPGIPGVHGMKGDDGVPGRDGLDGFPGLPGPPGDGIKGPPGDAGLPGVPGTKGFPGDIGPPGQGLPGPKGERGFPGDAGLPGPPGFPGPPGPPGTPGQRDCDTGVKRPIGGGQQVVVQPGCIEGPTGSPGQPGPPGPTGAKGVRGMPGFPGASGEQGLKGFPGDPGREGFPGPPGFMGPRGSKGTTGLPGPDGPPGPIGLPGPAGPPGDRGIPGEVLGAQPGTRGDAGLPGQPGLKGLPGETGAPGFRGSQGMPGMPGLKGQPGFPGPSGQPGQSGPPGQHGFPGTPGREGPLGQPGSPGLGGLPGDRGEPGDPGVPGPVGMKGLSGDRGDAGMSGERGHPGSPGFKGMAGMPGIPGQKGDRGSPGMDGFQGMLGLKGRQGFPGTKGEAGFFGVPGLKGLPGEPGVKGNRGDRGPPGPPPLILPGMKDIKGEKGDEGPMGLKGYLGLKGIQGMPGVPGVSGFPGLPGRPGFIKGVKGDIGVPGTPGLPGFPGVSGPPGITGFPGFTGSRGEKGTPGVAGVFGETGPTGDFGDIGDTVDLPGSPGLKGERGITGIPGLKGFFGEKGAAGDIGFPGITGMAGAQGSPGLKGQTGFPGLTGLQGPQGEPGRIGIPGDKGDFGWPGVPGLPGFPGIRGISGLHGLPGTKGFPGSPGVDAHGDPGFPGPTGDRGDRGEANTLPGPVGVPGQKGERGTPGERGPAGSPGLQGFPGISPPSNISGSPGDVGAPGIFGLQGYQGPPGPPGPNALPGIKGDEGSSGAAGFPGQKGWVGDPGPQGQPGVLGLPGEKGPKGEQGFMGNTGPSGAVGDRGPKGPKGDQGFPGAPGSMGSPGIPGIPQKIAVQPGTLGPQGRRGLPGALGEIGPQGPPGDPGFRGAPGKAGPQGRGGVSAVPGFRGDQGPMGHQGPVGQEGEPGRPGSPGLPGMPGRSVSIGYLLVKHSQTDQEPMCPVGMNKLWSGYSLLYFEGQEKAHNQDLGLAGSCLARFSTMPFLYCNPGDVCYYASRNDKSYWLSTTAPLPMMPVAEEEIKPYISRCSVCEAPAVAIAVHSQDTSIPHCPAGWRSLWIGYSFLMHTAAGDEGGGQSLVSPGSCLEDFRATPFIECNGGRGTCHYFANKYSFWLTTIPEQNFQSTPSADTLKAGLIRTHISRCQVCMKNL

Substance: CBP-Hep(Cy5): Cy5-labelled heparin conjugated with CBP by EDC/NHS chemistry (CQDSETRTFY; also: conjugated to Cy5-labelled heparin by EDC/NHS, place not given here)
- binding to collagen IV relative to scrambled CBPi control: four times more
